Measurements from publication doi:10.1101/2024.07.16.603699 (bioRxiv, 2024).

T1: Saccharolobus solfataricus ribosomal protein uS13 (S. solfataricus (endogenous in the …, UniProt P95986 1-165))
T1 sequence (looked up): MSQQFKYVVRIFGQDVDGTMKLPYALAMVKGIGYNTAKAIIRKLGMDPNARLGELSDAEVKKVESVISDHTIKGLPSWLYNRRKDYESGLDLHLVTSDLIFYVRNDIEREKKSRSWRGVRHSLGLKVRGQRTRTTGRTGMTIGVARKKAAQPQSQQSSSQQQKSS

T2: Saccharolobus solfataricus ribosomal protein uS3 (S. solfataricus (endogenous in the …, UniProt Q9UXA0 1-229))
T2 sequence (looked up): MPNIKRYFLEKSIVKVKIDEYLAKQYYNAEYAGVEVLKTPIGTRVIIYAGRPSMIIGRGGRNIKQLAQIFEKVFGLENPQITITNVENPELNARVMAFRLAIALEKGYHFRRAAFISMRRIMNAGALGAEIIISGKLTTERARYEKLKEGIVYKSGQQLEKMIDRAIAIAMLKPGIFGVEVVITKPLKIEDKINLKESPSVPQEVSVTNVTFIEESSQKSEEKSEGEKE

B1: Saccharolobus solfataricus ribosomal protein eS25 (natural protein, UniProt Q97ZZ6 1-110, looked up)
chain: MGGASKKPISTMEKRLKKEAEKQQKAEEKKKGPSKTGKEIISRAVTIDEETKKKVLDEIKKESIITPYALATKSGISISVARKILKELENQNVVKLYSKNRRLEIYIAAS
B2: Saccharolobus solfataricus ribosomal protein uS14 (natural protein, UniProt Q97ZQ5 1-54, looked up)
chain: MGKYKPPAERKYGKGVQSCQRCGSKDSVIQKYGIYLCRQCFREVAYELGFRKYW
B3: Saccharolobus solfataricus ribosomal protein aS34 (natural protein, UniProt Q97ZK4 1-72, looked up)
chain: MSIKNRGSNAYGHLGWLTVYCRICNRKLIIGTDILYKCPKCEKKYSAYFCEADKRGLKGKCPYCGTELVPIL

How the values were obtained:
Assay in all cases: cryo-EM structure
[1] = molecular target: T1, Saccharolobus solfataricus ribosomal …
[2] = molecular target: B3
[3] = molecular target: T2, Saccharolobus solfataricus ribosomal …

Binder: B1
- binding result [1]: binds

Binder: B2
- binding result [2]: binds

Binder: B3
- binding result [3]: binds
